The values that follow are results of earlier work, collected in patent publication US12090208B2, “Peptide drug improvement using vitamin B12 and Haptocorrin binding substrate conjugates” (SYRACUSE UNIVERSITY, priority 2017, dated 2024).

For this series the following is noted: in vivo.

B1: haptocorrin: serum B12 binding and transport protein (protein, UniProt P20061 24-433, looked up)
Transcobalamin-1: EICEVSEENYIRLKPLLNTMIQSNYNRGTSAVNVVLSLKLVGIQIQTLMQKMIQQIKYNVKSRLSDVSSGELALIILALGVCRNAEENLIYDYHLIDKLENKFQAEIENMEAHNGTPLTNYYQLSLDVLALCLFNGNYSTAEVVNHFTPENKNYYFGSQFSVDTGAMAVLALTCVKKSLINGQIKADEGSLKNISIYTKSLVEKILSEKKENGLIGNTFSTGEAMQALFVSSDYYNENDWNCQQTLNTVLTEISQGAFSNPNAAAQVLPALMGKTFLDINKDSSCVSASGNFNISADEPITVTPPDSQSYISVNYSVRINETYFTNVTVLNGSVFLSVMEKAQKMNDTIFGFTMEERSWGPYITCIQGLCANNNDRTYWELLSGGEPLSQGAGSYVVRNGENLEVRWSKY
As for B1, the half-life in blood entry is given as “approximately 10 hours”.
